One data set addresses UL9 full length (Herpes simplex virus 1, UniProt P10193 P10193:1-851). Put plainly: EMSA; dissociation time at 4 C, competition with SEQ 16. The conditions noted are these: protein: extract; tags: baculovirus/Sf9 expressed, partially purified extract; label: 32P.
In data set [1] the target is UL9-COOH (C-terminal 317 aa of HSV UL9) (Herpes simplex virus 1, UniProt P10193 P10193:535-851). The data set can be described thus: EMSA; dissociation time at 4 C, competition with SEQ 16; 20 mM HEPES pH 7.2, 50 mM KCl, 1 mM DTT. The conditions noted are these: tags: GST fusion from pGEX-2T, thrombin cleaved; crude E. coli extracts also used; label: 32P. Background: Mobility shift assays separate free from complexed probe on a gel.

Consider 1 molecule from patent US5306619, “Screening assay for the detection of DNA-binding molecules” (Genelabs Technologies, Inc.).

Sequence of UL9 full length (P10193 whole entry, the tested form may be a part, one chain of several): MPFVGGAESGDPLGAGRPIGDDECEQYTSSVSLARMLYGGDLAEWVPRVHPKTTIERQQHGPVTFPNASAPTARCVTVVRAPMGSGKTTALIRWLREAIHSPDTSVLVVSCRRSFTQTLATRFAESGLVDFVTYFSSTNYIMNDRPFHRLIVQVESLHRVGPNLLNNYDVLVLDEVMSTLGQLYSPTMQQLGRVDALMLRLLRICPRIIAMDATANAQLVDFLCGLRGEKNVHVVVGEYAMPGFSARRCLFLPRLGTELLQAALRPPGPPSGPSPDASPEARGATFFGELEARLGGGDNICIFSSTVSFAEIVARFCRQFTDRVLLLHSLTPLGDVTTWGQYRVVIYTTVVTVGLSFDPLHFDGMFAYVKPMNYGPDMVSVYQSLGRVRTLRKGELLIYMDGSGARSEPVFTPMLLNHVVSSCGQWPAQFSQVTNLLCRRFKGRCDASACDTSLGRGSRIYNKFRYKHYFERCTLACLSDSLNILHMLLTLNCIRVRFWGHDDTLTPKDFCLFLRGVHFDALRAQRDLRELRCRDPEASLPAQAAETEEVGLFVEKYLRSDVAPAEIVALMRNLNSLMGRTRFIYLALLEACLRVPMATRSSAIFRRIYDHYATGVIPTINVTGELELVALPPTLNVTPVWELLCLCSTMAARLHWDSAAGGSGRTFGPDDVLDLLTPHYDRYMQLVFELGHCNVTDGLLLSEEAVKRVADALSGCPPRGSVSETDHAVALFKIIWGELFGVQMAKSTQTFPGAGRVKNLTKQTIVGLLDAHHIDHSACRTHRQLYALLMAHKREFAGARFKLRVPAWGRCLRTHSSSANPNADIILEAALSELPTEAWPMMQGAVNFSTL
Sequence of UL9-COOH (C-terminal 317 aa of HSV UL9) (P10193 535-851, one chain of several): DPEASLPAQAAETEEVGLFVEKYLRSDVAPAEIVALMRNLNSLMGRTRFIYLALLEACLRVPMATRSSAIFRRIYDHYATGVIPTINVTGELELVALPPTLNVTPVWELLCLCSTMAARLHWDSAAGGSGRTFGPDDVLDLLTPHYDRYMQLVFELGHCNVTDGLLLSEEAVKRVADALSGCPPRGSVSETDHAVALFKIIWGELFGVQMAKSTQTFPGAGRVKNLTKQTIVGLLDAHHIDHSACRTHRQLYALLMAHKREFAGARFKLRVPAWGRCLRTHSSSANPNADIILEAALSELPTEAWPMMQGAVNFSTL

B1: FIG. 4 HSV oriS oligonucleotide (dsDNA)
DNA 1: AAGTGAGAATTCGAAGCGTTCGCACTTCGTCCCAAT
DNA 2: ATTGGGACGAAGTGCGAACGCTTCGAATTCTCACTT
Turning to B1, the koff (with UL9 full length; in data set [1]) was roughly 4 h in each case.
